Target: human GFRAL (UniProtKB-Q6UXV0) (human) (UniProt Q6UXV0)
Test: cell-based or functional assay

Sequence of human GFRAL (Q6UXV0 19-394): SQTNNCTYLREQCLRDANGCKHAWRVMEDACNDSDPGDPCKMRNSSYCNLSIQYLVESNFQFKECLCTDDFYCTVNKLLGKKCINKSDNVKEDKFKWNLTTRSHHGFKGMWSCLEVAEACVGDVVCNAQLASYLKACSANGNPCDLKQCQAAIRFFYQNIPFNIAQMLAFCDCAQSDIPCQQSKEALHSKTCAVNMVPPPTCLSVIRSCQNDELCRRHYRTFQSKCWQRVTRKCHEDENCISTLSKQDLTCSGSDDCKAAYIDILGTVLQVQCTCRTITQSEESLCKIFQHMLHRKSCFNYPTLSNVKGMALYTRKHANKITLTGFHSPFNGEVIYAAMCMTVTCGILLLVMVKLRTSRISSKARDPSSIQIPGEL

native GDF15 (ACROBiosystems, GD5-H5149) (from UniProt Q99988 195-308) (ligand)
Relative activity ratio (native GDF15 EC50: Fc-GDF15 construct EC50), ERK1/2 phosphorylation HTRF in HEK293T cells expressing human GFRAL and RET: 1

Reference: patent US20240391971A1
